Source: PMC7382286, “Extensive sequence and structural evolution of Arginase 2 inhibitory antibodies enabled by an unbiased approach to affinity maturation” (Proceedings of the National Academy of Sciences of the …, 2020)

Columns and labels:
[1] = biological target: T1, recombinant human Arginase 2 (human, UniProt P78540); experiment: SEC; Fab and ARG2 in solution; ratio of Fab to ARG2 upon complex formation; conditions: both partners purified
T1 construct: Arginase 2 (ARG2), human, recombinant; also called ARG2; trimeric ARG2; source: recombinant

[2] = biological target: the molecule itself; experiment: crystal structure; ARG2-Fab C0020187 complex purified by SEC, crystallised; space group P 6(5) 2 2, 3.25 Å
[3] = biological target: T1, recombinant human Arginase 2; experiment: cell-based or functional assay
[4] = biological target: T2, biotinylated recombinant human Arginase 2 (Homo sapiens, UniProt P78540, biotin (biotinylated; site not stated)); experiment: BLI; OctetRED96, 25 °C, PBS with 0.01% BSA and 0.002% Tween 20; biotinylated human ARG2 captured on streptavidin sensors, Fabs titrated as analyte; 1:1 binding model (heterogeneous ligand model for C0020187); conditions: both partners purified
T2 construct: Arginase 2 (ARG2), human, recombinant; Construct, tags and the way of biotinylation are in the SI Appendix; also called ARG2; biotinylated human ARG2; source: recombinant

[5] = biological target: T1, recombinant human Arginase 2; experiment: crystal structure; ARG2-Fab C0020187 complex purified by SEC, crystallised; space group P 6(5) 2 2, 3.25 Å; conditions: both partners purified

Binder	stoichiometry N [1]	binding result [4]	further results
Fab C0021177 (Fab, V domains shown, VH of C0021177; VL of C0021177; Pool-maturation lead) VH: EVQLLESGGGLVQPGGSLRLSCAASGFTFRYEVAAWVRQAPGKGLEWVSAISGPAPKGYYADSVKGRFTISRDNSKNTLYLQMNSLRAEDTAVYYCARLRADLGLYMDLWGRGTLVTVSS VL: QSELTQPPTASAAPGQKVTISCSGSSSNIGNHYVSWYQQLPGTAPKLLIYDTTVLSSGIPDRFSGSKSGTSATLGITGLQTGDEADYYCGTWDELTSNLVFGGGTKLTVL	3 Fab per ARG2 trimer	–	–
recombinant human Arginase 2 (enzyme, Arginase 2 (ARG2), human, recombinant; also called ARG2; trimeric ARG2; source: recombinant) VHSVAVIGAPFSQGQKRKGVEHGPAAIREAGLMKRLSSLGCHLKDFGDLSFTPVPKDDLYNNLIVNPRSVGLANQELAEVVSRAVSDGYSCVTLGGDHSLAIGTISGHARHCPDLCVVWVDAHADINTPLTTSSGNLHGQPVSFLLRELQDKVPQLPGFSWIKPCISSASIVYIGLRDVDPPEHFILKNYDIQYFSMRDIDRLGIQKVMERTFDLLIGKRQRPIHLSFDIDAFDPTLAPATGTPVVGGLTYREGMYIAEEIHNTGLLSALDLVEVNPQLATSEEEAKTTANLAVDVIASSFGQTREGGHIVYDQLPTPSSPDESENQARVRI	–	–	stoichiometry N [2]: 3
Fab C0021158 (Fab, V domains shown, VH of C0021158; VL of C0021158; Pool-maturation lead; 18 amino acid changes against C0020187) VH: EVQLLESGGGLVQPGGSLRLSCAASGFTFRYEVAAWVRQAPGKGLEWVSAISGPIPKGYYADSVKGRFTISRDNSKNTLYLQMNSLRAEDTAVYYCARLRADLGLYMDLWGRGTLVTVSS VL: QSVLTQPPSVSAAPGQKVTISCSGSSSNIGNHYVSWYQQLPGTAPKLLIYDNSERTAGVPDRFSGSKSGTSATLGITGLQTGDEADYYCGTWDELTSNLVFGGGTKLTVL	3 Fab per ARG2 trimer	–	–
Fab C0021181 (Fab, V domains shown, VH of C0021181; VL of C0021181; Pool-maturation lead; 18 amino acid changes against C0020187) VH: EVQLLESGGGLVRPGGSLRLSCAASEFTFRYDYHVWVRQAPGKGLEWVSAISGSGGSTYYADSVKSRFTISRDNSKNTLYLQMNSLRAEDTAVYYCARLRADLGLYMDLWGRGTLVTVSS VL: QSVLTQPPSVSAAPGQKVAVSCSGSSSNIGSHYVSWYQQLPGTAPKLLIYDNSERTSGIPDRFSGSKSGTSATLGITGLQTGDEADYYCGTWDELTSNLVFGGGTRLTVL	3 Fab per ARG2 trimer	–	–
Fab C0021139 (Fab, V domains shown, VH of C0021139; Fab heavy-chain constant region; VL of C0021139; Fab light-chain constant region) VH: EVQLLESGGGLVQPGGSLRLSCAASGFTFQYDYQVWVRQAPGKGLEWVSAISGSGGSTYYADSVKGRFTISRDNSKNTLYLQMNSLRAEDTAVYYCARLRADLGLYMDLWGRGTLVTVSS VL: QSVLTQPPSVSAAPGQKVTISCSGSSSNIGNHYVSWYQQLPGTAPKLLIYDNSERTSGIPDRFSGSKSGTSATLGITGLQTGDEADYYCGTWDELTSNLVFGGGTKLTVL	–	binds	–

Now from value to binder, other results behind:

stoichiometry N [1]	binding result [4]	Binder	further results
1 Fab per ARG2 trimer	–	Fab C0020187 (Fab, V domains shown, VH of C0020187; Fab heavy-chain constant region; VL of C0020187; Fab light-chain constant region; also called parental antibody; parent Fab C0020187) VH: not shown VL: QSVLTQPPSVSAAPGQKVTISCSGSSSNIGNHYVSWYQQLPGTAPKLLIYDNSERPSGIPDRFSGSKSGTSATLGITGLQTGDEADYYCGTWDSSLSALVFGGGTKLTVL	inhibition of the enzymatic activity of recombinant human ARG2 (1 µg/mL, ~24 nM; urea measured colorimetrically), IC50 [3]: 900 nM; KD of the initial high-affinity binding site (heterogeneous ligand model) [4]: ~10 nM; stoichiometry N [5]: 3 Fab per ARG2 trimer
–	binds	Fab C0021128 (Fab, V domains shown, VH of C0021128; Fab heavy-chain constant region; VL of C0021128; Fab light-chain constant region) VH: EVQLLESGGGLVQPGGSLRLSCAASGFTFQYEVAAWVRQAPGKGLEWVSAISGPIPKGYYADSVKGRFTISRDNSKNTLYLQMNSLRAEDTAVYYCARLRADLGLYMDLWGRGTLVTVSS VL: QSVLTQPPSVSAAPGQKVTISCSGSSSNIGNHYVSWYQQLPGTAPKLLIYDNAIESSGIPDRFSGSKSGTSATLGITGLQTGDGADYYCGTWDSNLSALVFGGGTKLTVL	–
–	binds	Fab C0021133 (Fab, V domains shown, VH of C0021133; Fab heavy-chain constant region; VL of C0021133; Fab light-chain constant region) VH: EVQLLESGGGLVQPGGSLRLSCAASGFTFRYDHHVWVRQAPGKGLEWVSAISGSGGSTYYADSVKGRFTISRDNSKNTLYLQMNSLRAEDTAVYYCARLRADLGLYMDLWGRGTLVTVSS VL: QSVLTQPPSVSAAPGQKVTVSCSGSSSNIGNHYVSWYQQLPGTAPKLLIYDTTVLSSGIPDRFSGSKSGTSATLGITGLQTGDEADYYCGTWDELTSNLVFGGGTKLTVL	–
